From publication PMC11828469 (2025)

B1: GST–Rabin8-WT [human] / 6His–Rab8a [not stated] (parent complex)
chain 1: MANDPLEGFHEVNLASPTSPDLLGVYESGTQEQTTSPSVIYRPHPSALSSVPIQANALDVSELPTQPVYSSPRRLNCAEISSISFHVTDPAPCSTSGVTAGLTKLTTRKDNYNAEREFLQGATITEACDGSDDIFGLSTDSLSRLRSPSVLEVREKGYERLKEELAKAQRELKLKDEECERLSKVRDQLGQELEELTASLFEEAHKMVREANIKQATAEKQLKEAQGKIDVLQAEVAALKTLVLSSSPTSPTQEPLPGGKTPFKKGHTRNKSTSSAMSGSHQDLSVIQPIVKDCKEADLSLYNEFRLWKDEPTMDRTCPFLDKIYQEDIFPCLTFSKSELASAVLEAVENNTLSIEPVGLQPIRFVKASAVECGGPKKCALTGQSKSCKHRIKLGDSSNYYYISPFCRYRITSVCNFFTYIRYIQQGLVKQQDVDQMFWEVMQLRKEMSLAKLGYFKEEL
chain 2: MAKTYDYLFKLLLIGDSGVGKTCVLFRFSEDAFNSTFISTIGIDFKIRTIELDGKRIKLQIWDTAGQERFRTITTAYYRGAMGIMLVYDITNEKSFDNIRNWIRNIEEHASADVEKMILGNKCDVNDKRQVSKERGEKLALDYGIKFMETSAKANINVENAFFTLARDIKAKMDKKLEGNSPQGSNQGVKITPDQQKRSSFFRCVLL
B2: GST–Rabin8-WT [human] / 6His–Rab11a [not stated] (parent complex)
chain 1: B1 chain 1
chain 2: MGTRDDEYDYLFKVVLIGDSGVGKSNLLSRFTRNEFNLESKSTIGVEFATRSIQVDGKTIKAQIWDTAGQERYRAITSAYYRGAVGALLVYDIAKHLTYENVERWLKELRDHADSNIVIMLVGNKSDLRHLRAVPTDEARAFAEKNGLSFIETSALDSTNVEAAFQTILTEIYRIVSQKQMSDRRENDMSPSNNVVPIHVPPTTENKPKVQCCQNI

Variants of: B1
Assay: GST pull-down, immunoblot quantified with Image Lab 6.1; purified Rab8 in the presence of GDPβS; n=3; parent: 4.5; read off a plot

Variant	response
chain 1 MANDPLEGFHEVNLASPTSPDLLGVYESGTQEQTTSPSVIYRPHPSALSSVPIQANALDVSELPTQPVYSSPRRLNCAEISSISFHVTDPAPCSTSGVTAGLTKLTTRKDNYNAEREFLQGATITEACDGSDDIFGLSTDSLSRLRSPSVLEVREKGYERLKEELAKAQRELKLKDEECERLSKVRDQLGQELEELTASLFEEAHKMVREANIKQATAEKQLKEAQGKIDVLQAEVAALKTLVLSSSPTSPTQEPLPGGKTPFKKGHTRNKSTSSAMSGSHQDLSVIQPIVKDCKEADLSLYNEFRLWKDEPTMDRTCPFLDKIYQEDIFPCLTFSKSELASAVLEAVENNTLSIEPVGLQPIRFVKASAVECGGPKKCALTGQSKSCKHRIKLGDSSNYYYISPFCRYRITSVCNFFAYIRAIQQGAVKQQDVDQMFWEVMQLRKEMSLAKLGYFKEEL [chain 1 T419A, chain 1 Y423A, chain 1 L428A]	~4.5
chain 1 MANDPLEGFHEVNLASPTSPDLLGVYESGTQEQTTSPSVIYRPHPSALSSVPIQANALDVSELPTQPVYSSPRRLNCAEISSISFHVTDPAPCSTSGVTAGLTKLTTRKDNYNAEREFLQGATITEACDGSDDIFGLSTDSLSRLRSPSVLEVREKGYERLKEELAKAQRELKLKDEECERLSKVRDQLGQALEELTASLFEEAHKMVREANIKQATAEKQLKEAQGKIDVLQAEVAALKTLVLSSSPTSPTQEPLPGGKTPFKKGHTRNKSTSSAMSGSHQDLSVIQPIVKDCKEADLSLYNEFRLWKDEPTMDRTCPFLDKIYQEDIFPCLTFSKSELASAVLEAVENNTLSIEPVGLQPIRFVKASAVECGGPKKCALTGQSKSCKHRIKLGDSSNYYYISPFCRYRITSVCNFFTYIRYIQQGLVKQQDVDQMFWEVMQLRKEMSLAKLGYFKEEL [chain 1 E192A]	~4.5
chain 1 MANDPLEGFHEVNLASPTSPDLLGVYESGTQEQTTSPSVIYRPHPSALSSVPIQANALDVSELPTQPVYSSPRRLNCAEISSISFHVTDPAPCSTSGVTAGLTKLTTRKDNYNAEREFLQGATITEACDGSDDIFGLSTDSLSRLRSPSVLEVREKGYERLKEELAKAQRELKLKDEECERLSKVRDQLGQELEELTASLAEEAHKMVREANIKQATAEKQLKEAQGKIDVLQAEVAALKTLVLSSSPTSPTQEPLPGGKTPFKKGHTRNKSTSSAMSGSHQDLSVIQPIVKDCKEADLSLYNEFRLWKDEPTMDRTCPFLDKIYQEDIFPCLTFSKSELASAVLEAVENNTLSIEPVGLQPIRFVKASAVECGGPKKCALTGQSKSCKHRIKLGDSSNYYYISPFCRYRITSVCNFFTYIRYIQQGLVKQQDVDQMFWEVMQLRKEMSLAKLGYFKEEL [chain 1 F201A]	~4.5

Variants of: B2
Assay: GST pull-down, immunoblot quantified with Image Lab 6.1; purified Rab11 in the presence of GTPγS; n=3; parent: 8.5; read off a plot

Variant	response
chain 1 MANDPLEGFHEVNLASPTSPDLLGVYESGTQEQTTSPSVIYRPHPSALSSVPIQANALDVSELPTQPVYSSPRRLNCAEISSISFHVTDPAPCSTSGVTAGLTKLTTRKDNYNAEREFLQGATITEACDGSDDIFGLSTDSLSRLRSPSVLEVREKGYERLKEELAKAQRELKLKDEECERLSKVRDQLGQELEELTASLAEEAHKMVREANIKQATAEKQLKEAQGKIDVLQAEVAALKTLVLSSSPTSPTQEPLPGGKTPFKKGHTRNKSTSSAMSGSHQDLSVIQPIVKDCKEADLSLYNEFRLWKDEPTMDRTCPFLDKIYQEDIFPCLTFSKSELASAVLEAVENNTLSIEPVGLQPIRFVKASAVECGGPKKCALTGQSKSCKHRIKLGDSSNYYYISPFCRYRITSVCNFFTYIRYIQQGLVKQQDVDQMFWEVMQLRKEMSLAKLGYFKEEL [chain 1 F201A]	~9
chain 1 MANDPLEGFHEVNLASPTSPDLLGVYESGTQEQTTSPSVIYRPHPSALSSVPIQANALDVSELPTQPVYSSPRRLNCAEISSISFHVTDPAPCSTSGVTAGLTKLTTRKDNYNAEREFLQGATITEACDGSDDIFGLSTDSLSRLRSPSVLEVREKGYERLKEELAKAQRELKLKDEECERLSKVRDQLGQALEELTASLFEEAHKMVREANIKQATAEKQLKEAQGKIDVLQAEVAALKTLVLSSSPTSPTQEPLPGGKTPFKKGHTRNKSTSSAMSGSHQDLSVIQPIVKDCKEADLSLYNEFRLWKDEPTMDRTCPFLDKIYQEDIFPCLTFSKSELASAVLEAVENNTLSIEPVGLQPIRFVKASAVECGGPKKCALTGQSKSCKHRIKLGDSSNYYYISPFCRYRITSVCNFFTYIRYIQQGLVKQQDVDQMFWEVMQLRKEMSLAKLGYFKEEL [chain 1 E192A]	~9.5

Variants of: B2
Assay: GST pull-down, immunoblot quantified with Image Lab 6.1; purified Rab11 in the presence of GTPγS; n=3; P=0.0012 vs WT; parent: 8.5; read off a plot

Variant	response
chain 1 MANDPLEGFHEVNLASPTSPDLLGVYESGTQEQTTSPSVIYRPHPSALSSVPIQANALDVSELPTQPVYSSPRRLNCAEISSISFHVTDPAPCSTSGVTAGLTKLTTRKDNYNAEREFLQGATITEACDGSDDIFGLSTDSLSRLRSPSVLEVREKGYERLKEELAKAQRELKLKDEECERLSKVRDQLGQELEELTASLFEEAHKMVREANIKQATAEKQLKEAQGKIDVLQAEVAALKTLVLSSSPTSPTQEPLPGGKTPFKKGHTRNKSTSSAMSGSHQDLSVIQPIVKDCKEADLSLYNEFRLWKDEPTMDRTCPFLDKIYQEDIFPCLTFSKSELASAVLEAVENNTLSIEPVGLQPIRFVKASAVECGGPKKCALTGQSKSCKHRIKLGDSSNYYYISPFCRYRITSVCNFFAYIRAIQQGAVKQQDVDQMFWEVMQLRKEMSLAKLGYFKEEL [chain 1 T419A, chain 1 Y423A, chain 1 L428A]	~2.5
